Assay: label from the status in PepcDB records

For “MRIGHGFDVHAFGGEGPIIIGGVRIPYEKGLLAHSDGDVALHALTDALLGAAALGDIGKLFPDTDPAFKGADSRELLREAWRRIQAKGYTLGNVDVTIIAQAPKMLPHIPQMRVFIAEDLGCHMDDVNVKATTTEKLGFTGRGEGIACEAVALLIKATK”, the protein production was “not failed”.

For “MTSLPTSLLGDLDPTSDRAVFRQIADQLREAIDRGRFKEGEKLPSEAELVEHYGVSRMTVRNSFSILQGEGLVHAEHGKGVFVRPRPPVRRLASDRFARRHREQGKSAFIVEADAAGSHPQVDSLEVKEEKASQDISTRLGSVRRVLARRRRYLLDGRPVEFATSYLPLDIARDTPIAEPNPGPGGIYARLEELGHRLDHFEEEIRARMPSPSEVKTLRLASGVPVIHLIRTAYDTEGRAVEVCDTVMAADAYVLSYQLPAT”, the protein production was “failed”.

In the case of “MEGLIPFLYKAIVMYKREGSFSSVLLSDHHSPSNAGYYMRLPGDSSSRFRTSDLRRFGTDRFGMLETTPSSSPSRVSTRNITKRT”, the protein production is reported as “failed”.

In the case of “MDFKIEKYLLKKAEELAFITIKHGGEFKLKSYEVPKGGLDVPIKNEVLVKGIKEKTAQDKLNSMSIADAMIYIIGIDSKFKNNAEYEKFLNALSKDIDLDLKSYMGYMSRKYFEIGEHTDSLIYIKAFITMYPDDLDAMYNYAIVCQEIAKQYQKDMDDKAMNAFLLEAMAKLEKVIDVDENFALGYYHLGYHYYNQGQYLKTKLTWEEALRLGLDADLVAEVQENLGKMDFKVQYEEGYTLVFQGKFKEGLEKLLPLEEEHMDWWNLLFMIALGYKGMGEIEQAKMYLEKILIIKPNQVDTIVELGLCEAYKNNLDKAIEYFEQAAKIKEDPEILCNLGMAYLNNGDIDDATYYIERAYELNPQDEITIVCLRELGINK”, the protein production is reported as “failed”.

With “APKTFMFGVSKVEEPKTVSFGTGIKETTATSSTEATAPTPAAAAPAPVQFVFKAPTTATTASSLTTTISTTSNAPALGGFSFGAPSSSSTVSSSTTSTSANPAAVKPMFSWSGAGSAVSSTSSSQQPVAKAPTLGFGVSSSTVTTTTTSTKVFAFTPASGLDPAAATSAPAAGAGFSFGSQSKPATTQNTGTFFFGQPTAVAPATPTNPSVSSIFGAPATSTTASTSVSATTSTSTANAIASSFAPTSTPQLFGNWGEKKTDLTTFGASSGSGTTTTPSFGWSSNGDAAKSNSAAVGSAAVPSSSASTMATPIFGSSSMFGPSSSSNNTTSTSTTSLPFGSAATTAATTPAGGNAALTGLFGNVGNSLAGVGAPVATTPAATAAAPLTNIFGNPTPVAAAAPVFGSGSTIPSAGFGAPAAAAPLAAPALPGAFN” the protein production was “failed”.

For “MVRRLTNGRWGLTLLILALMYIIALGLMARPAAADPGITLVLNGSRVNPSVPAYTDSNGRTMVPVRFVMEHMGGRVEWLDAEQGIVVSRGATTLKMWIGKRQAQVNGQAIDLDTVPVLQDGTSMVPVRFVAQAFGGKVEWDDASRTVSIWLGTASPAGQVRITGSYVNVRTGPGTSYGVIDVLPRDTLVQLLATGDGWYQVQLPDGRQGWVSASYSEVLQGNNQPQDTNPPGNNQPGNGQSPGNNPSPGNNQPGNEEPPSGQPLGTAIIGNKPVAILAGPNPVEKQVGMAPAGSRLPIWQQQGDWWLVELDNGLRGWLASSLATFSPEKPGQDNGGSETGNGGTAPGEGNQGVGNSDSNSLKITGVTVNPGPDWIEVTVQGTRPFTFKSSRWADHLIFDIPGATLAVAPGQDKVEVNRQPLARVRLGQYDANTVRVVCDLNGAANFTTTTAGSTITIRLQKPSVRGAKIVIDPGHGTDPQGSDPGAIGPSGVQEKDVNLAISRKLAELLRAAGATVYMTRDGETTPYTLSGRAYYANEVGADLFICIHSNASLSPSASGTSTYFYAPPGTALGEQRDARQRLATLIQRDLVAAIGRRDLGVKEANFAVLRNTKMPSVLVETAFISNPTEEQLLASPDFQALVAQGIFNGISDYLSGQ”, the protein production was “failed”.

With “MGGGGHGGGITYKGVTVHTPKTWHTVTGKGLCAVMWFWILYRAKQDGPVVMGWRHPWDGHGDHGHGDHH” the protein production was “failed”.

For “PLLTEEALFGEDRHVLGEKGVVVRVFSDFQCPYCQRLAREVLPALKAMAREGRLRLAYRHFPLYEIHPEAVPAAVASECAAAQGAFWAYHDLLMAGSGWDYPALARRLGLDPKAFQACLEDPASRAPVEADRALAERLGLPGTPSVFVGPFRLPNPFDLERYRDYLALAEAL”, the protein production was “failed”.

For “MSTKTVHYPWFKKEDIDAFFALFQNNLANFVIIAVTMIGLGFPASLVFGKVIPGVAVAVIVGNLYYAYMANRLAQKESRSDVTALSYGISTPVMFVFLFGILAPALALTGDPELAWKIGLAAAFLSGFIELLVSFTGNWVRKHLPRPAMLGALAGVAVTFIAGEMLFQVFSIPVVGLVALAIILLGVVGKVTLPFNIPPSLCAVIIGTVLAFVLGYQSANTLQDSLANIGLYPILPSLGAFEGFGYLFGPLVGLLAILLPITIYNAIETMNNVDAMAAAGDSYDVRECQAVDGVGTMIGAVFGGLFPTTVYIATVGSKWMGAGRGYSILNALVFAITAVTGVIAALSELIPLAAVAPILVFVGMSMVVTAFDPNDRKYYPAVALAMLPYVANYVMTRFNNNAGEVVQGISEGIVPLGQGAMFTAIILGAIAVCIIDKQFIKAAVFSLIGAGLSFAGFMHAPELSFNAAPDYSLGYLCIAILFSYCAFRKTSKEAVASPSTLSSKRVAS”, the protein production was “failed”.

With “MPGLPEVAPGDDLAKLIAAVEPGLVDGDVLLVTSKIVSKAEGRIVRADDREAAIDAETVRVVARRGALRIVENRQGLVMAAAGVDASNTPSGTVLLLPEDPDASARAIRDGLRDTLGVDVGVVVTDTFGRPWRTGLTDVAIGAAGVRVLDDLRGGTDAYGNPLSATVVATADELAAAGDLVKGKAAGLPVAVVRGLPHVIAGDDEAGARAMVRGGRDDMFRLGTSEAVREAVTQRRTVRAFTDEPVDPGAVRRAVAAAVTAPAPHHTTPWRFVLLESAESRTRLLDAMRDAWIADLRGDRKTEESIAKRVRRGDVLRNAPYLVVPCMVMDGSHSYGDARRDAAEREMFVVATGAGVQNFLVALAGERLGSAWVSSTMFCRDVVRRALGLPESWEPMGAVAVGHAAEEPRDRPARDAGAFIEVRLEHHHHHH” the protein production was “not failed”.

With “MARFALVLHAHLPYVRAHGMWPFGEETLYEAMAETYLPLIRVLERLRAEGVEAPFTLGITPILAEQLADARIKEGFWAYAKDRLERAQGDYQRYRGTALEASARHQVAFWELTLDHFQRLSGDLVAAFRKAEEGGQVELITSNATHGYSPLLGYDEALWAQIKTGVSTYRRHFAKDPTGFWLPEMAYRPKGPWKPPVEGPPEGVRPGVDELLMRAGIRYTFVDAHLVQGGEPLSPYGEAALGPVESQEATYHVHELESGLRVLARNPETTLQVWSADYGYPGEGLYREFHRKDPLSGLHHWRVTHRKADLAEKAPYDPEAAFAKTEEHARHFVGLLERLAGRHPEGVILSPYDAELFGHWWYEGVAWLEAVLRLLAQNPKVRPVTAREAVQGPAVRTALPEGSWGRGGDHRVWLNEKTLDYWEKVYRAEGAMREAARRGVLPEGVLRQAMRELLLLEASDWPFLMETGQAEAYARERYEEHARAFFHLLKGASPEELRALEERDNPFPEADPRLYLFREA” the protein production was “not failed”.

In the case of “EQEDKVSGEKTLAVVSASSDDRPSTRGIINDNTYALGVFRTTANTYAPLYNVKHIYSGGEWGADDVIKVDYRNASFFAYYPYHTATGNYAGLAGGTTLTLQAQLFNAGEDICYGAGEASGGGPVSVYNPFVEFLNMKHAYARLRLTLTRGEKFDKTKKCNIQNITFKSNNANFYLTRSLDIASTAGATGGSAVAAGYVHNPNVNIATGKSVTYEYMFPPQPLDGSKLTILVTVDGVTRSCDISTLGSSLDSGKYYGVSLTFTDVGIILSSAVVTVNNFGGQGNTQVDTEL”, the protein production is reported as “not failed”.

For “MDIQRSILIVALAVVSYLLVLQWNKDYGQPELPAASASMNTTQGLPDTPSASGTSSDVPTAQSSAAGSEAADKPVAVSDKLIQVKTDVLDLAIDPRGGDIVQLGLLQYPRRLDRPDVPFPLFDNGRERTYLAQSGLTGADGPDASSAGRPLFRSAQSSYQLADGQNELVVDLSFSHDGVNYIKRFTFHRGLKADCSDKEKAQKKIECINENAYQVGVSYLIDNQSGKTWSGNLFAQLKRDGSADPSSTTATGVSTYLGAAVWTPDSPYKKISTKDMDKEQFKESVQGGWVAWLQHYFVTAWVPTKGEQHQVMTRKDGQGNYIVGFTGPTLSVPAGSKVETDLTLYAGPKLQKHLKELSPGLELTVDYGFLWFIAQPIFWLLQHIHSLIGNWGWSIIALTVLIKLAFFPLSAASYRSMARMRAVSPKMQAIKEQHGDDRQKMSQAMMELYKKEKINPLGGCLPILVQMPVFLSLYWVLLESVEMRQAPWLGWITDLSVKDPFFILPIVMGGTMLIQQMLNPTPPDPMQAKVMKLMPIIFTFFFLWFPAGLVLYWVVNNCLSIAQQWYITRKIEAAAKTA”, the protein production was “failed”.

For “MTRSEAQGRLTGLAPVSVIDIGSNSVRLVVYEGLSRAPAVLFNEKVLCGLGKGLALTGRMHEEGVTRALMALRRFHVLSEQAQAQKLYVLATAAAREAENGPDFIREAEAILGCEIEVLSGEKEALYSAYGVISGFYQPDGIAGDLGGGSLELIDIKDKSCGEGITLPLGGLRLSEQSDGSLEKAATIARKHVKSFAKLLAAGEGRTFYAVGGTWRNIAKLHMEISGYPLHMMQGYELPLEEMLNFLEEVIVSRDSKDPAWQAVSKNRRSLLPFGAIAMREVLRAMKPAKIAFSAQGVREGYLYSLLTEAERESDPLLVAADELAILRARSPEHARELADWSGRTFPVFGIDETEEESRYRQAACLLADISWRAHPDYRGLQALNIIAHSSFVAITHPGRAYIALANYYRFEGLNDNGTTEPLAAMAGERLQELGKLLGGLLRVVYLFSASMPGVVDHLKFRKSDNPDIDLEFVVPHDYCDFAGERLDGRLQQLAKLTGKRLAFVFE”, the protein production was “not failed”.

With “MLELFLKEEWTTEAKEILRPFGQKKLIGIQMGASNRSRQWFVERWIELAKRIIERDEEVVIVFVGSKNELEEISLVAQALPQDRVFISAGRLSLGAAAALIGELGLLFTPDTGPLHIAVALRVKTISLFAVANPKNSLPDYDQSLHRYIKVDRCCEPCVGKRCAYQKCMEAIGVDEVYEEYKKLQELEHHHHHH” the protein production was “not failed”.

In the case of “MGARTPPCGREIVRVLPSERLISGNGEGAPLPDSHSELPPVIRRTEFVAYALAGLLLIAVIGVLYFAKAFFLPVVMAVVAGTMLSPAASFLERRGVPRALGAVLIVTAVTTVVAFVVALIAVPAMEWSSRLPELGAQLKEKLHVFDRPLALWKELQTMVGGSEGLPSLPLPKAEWVQPTLEFLSPTFAEFLLFFATLILFIASWRDLRRALIMNFGDRDARLRTLRILNEIEVHLGNYLLTVTVINIGVGVATGIICAITGMPNPAGLGALAAALNFIPIIGPIAMFIVLIVVGLVAFPTLGGGLMAGLAFGGITFLEGHFVTPTIIGRRLSLNALAVFIALAFWTWLWGPMGAFLSSPLLIVGLILKEHLLPENSPQLPQA”, the protein production is reported as “failed”.

For “MTNDQIKKAKNGTYYFRANLGYDVKGKKIQKYRSGFKTKKEAREEYSRLLLMNPDDLNENKDKMMFEYYINEIFLPWYKTQVKLRTYENRIPTIQKHFPYFYKMAVSDIEPINVQDWQLKMTKNLKPSYVRAVQGLFSVAMDRAIVLGITTTNPSKIIGNVKKVKPKVEFWTKEEFEKVLSLIYKEDYYQNFLFISLWFLFMTGMRIGEATAIQWEDIDFETGVVSITKTLYYKSQIDYKFVEPKTKASVRHIVLDKVTLSYLADWREVQQNVVKTNFVMSYNGIPTQKHTIAHAIDRFSKMAGIHRIKIHALRHSHASLLISMGENPLIIKERLGHEDIETTLGTYGHLYPNSNFEVASKLNGIISFQPAEQNLDSSPKNQFTVNYRQNKQPNSAIKVQ”, the protein production was “failed”.

In the case of “MIYENHANTAENNGPLALVLGANGGVGSHVLKMLLQRGWQVRALTRQRVAAGASDGIERVTGDVMNRQDVMDAAKGATLIVHAVNPPGYRDWERQVLPMLDNTIAAAEACGARILLPGTVYNFGPDAFPLLKEDSPQQPFTRKGALRVEMERRLKMASMRGVPVLIVRAGDFFGPDAKNNWFSQMLVRPGKPVRSVQNPAAPHAGHQWAYLPDVAETIGRLLDRSGELPPFAVYHMEGFWDFDGLQLVGAIERAVGRPVKMRRMSWLAIKLAAPFVPLFREVLEMQYLWHMPLRMSNGKLTDFLGAEPKTPVDIAVSATLTSLGCIEQPRVPASLHRPVDAGGRV”, the protein production is reported as “failed”.

From a protein production outcome set (Wang et al. 2014)
